{"source": "paper PMC5620080", "about": "“The cryo-EM structure of hibernating 100S ribosome dimer from pathogenic Staphylococcus aureus” (Nature Communications, 2017)", "key": {"[1]": {"target": "the molecule itself", "assay": "cryo-EM structure; native 100S ribosome dimers purified from S. aureus; 6.8 Å map of the 100S, 6.7 Å focused map of the dimer interface (C2 symmetry), 3.2 Å masked 30S map"}, "[2]": {"target": "the molecule itself", "assay": "SEC; Superdex-200 Increase 10/300 GL; 20 mM Tris pH 7.9, 20 mM MgCl2, 250 mM NH4Cl, 10 mM KCl; 0.5 ml/min; 50 µg of purified HPFSA protein; apparent molecular weights from a standard curve"}}}
{"protein": "S. aureus hibernating promoting factor (HPFSA), full length, in the native 100S ribosome (natural protein, UniProt Q2FIN9 1-190, looked up, hibernating promoting factor (HPF), Staphylococcus aureus JE2 (USA300), full-length hpf under its native promoter; residues 1-190; first 100 residues modelled, C-terminal domain fitted as a homology model; Two copies in the 100S dimer, one for each 70S; also called long HPF; N-HPFSA (N-terminal domain); source: S. aureus hpf-knockout strain (USA300, JE2) with plasmid pLI50hpf; isolated with the …) MIRFEIHGDNLTITDAIRNYIEEKIGKLERYFNDVPNAVAHVKVKTYSNSATKIEVTIPLKNVTLRAEERNDDLYAGIDLINNKLERQVRKYKTRINRKSRDRGDQEVFVAELQEMQETQVDNDAYDDNEIEIIRSKEFSLKPMDSEEAVLQMNLLGHDFFVFTDRETDGTSIVYRRKDGKYGLIQTSEQ", "values": [{"measurement": "binding result", "setting": "[1]", "result": "binds"}]}
{"protein": "recombinant His-tagged full-length HPF (HPFSA) (natural protein, S. aureus, UniProt Q2FIN9 1-190, looked up, hibernating promoting factor (HPF), Staphylococcus aureus, full length; also called full-length HPFSA protein; source: E. coli BL21(DE3), pET28a, purified) MIRFEIHGDNLTITDAIRNYIEEKIGKLERYFNDVPNAVAHVKVKTYSNSATKIEVTIPLKNVTLRAEERNDDLYAGIDLINNKLERQVRKYKTRINRKSRDRGDQEVFVAELQEMQETQVDNDAYDDNEIEIIRSKEFSLKPMDSEEAVLQMNLLGHDFFVFTDRETDGTSIVYRRKDGKYGLIQTSEQ", "values": [{"measurement": "binding result", "setting": "[2]", "result": "binds"}]}
